Results: paper PMC2822101 (Journal of molecular biology, 2009)

B1: DnaJ (natural protein, UniProt P08622 1-376, looked up)
chain: MAKQDYYEILGVSKTAEEREIRKAYKRLAMKYHPDRNQGDKEAEAKFKEIKEAYEVLTDSQKRAAYDQYGHAAFEQGGMGGGGFGGGADFSDIFGDVFGDIFGGGRGRQRAARGADLRYNMELTLEEAVRGVTKEIRIPTLEECDVCHGSGAKPGTQPQTCPTCHGSGQVQMRQGFFAVQQTCPHCQGRGTLIKDPCNKCHGHGRVERSKTLSVKIPAGVDTGDRIRLAGEGEAGEHGAPAGDLYVQVQVKQHPIFEREGNNLYCEVPINFAMAALGGEIEVPTLDGRVKLKVPGETQTGKLFRMRGKGVKSVRGGAQGDLLCRVVVETPVGLNERQKQLLQELQESFGGPTGEHNSPRSKSFFDGVKKFFDDLTR
B2: aggregated glucose-6-phosphate dehydrogenase (G6PDH) from Leuconostoc mesenteroides (enzyme, UniProt P11411 1-486, looked up)
chain: MVSEIKTLVTFFGGTGDLAKRKLYPSVFNLYKKGYLQKHFAIVGTARQALNDDEFKQLVRDSIKDFTDDQAQAEAFIEHFSYRAHDVTDAASYAVLKEAIEEAADKFDIDGNRIFYMSVAPRFFGTIAKYLKSEGLLADTGYNRLMIEKPFGTSYDTAAELQNDLENAFDDNQLFRIDHYLGKEMVQNIAALRFGNPIFDAAWNKDYIKNVQVTLSEVLGVEERAGYYDTAGALLDMIQNHTMQIVGWLAMEKPESFTDKDIRAAKNAAFNALKIYDEAEVNKYFVRAQYGAGDSADFKPYLEELDVPADSKNNTFIAGELQFDLPRWEGVPFYVRSGKRLAAKQTRVDIVFKAGTFNFGSEQEAQEAVLSIIIDPKGAIELKLNAKSVEDAFNTRTIDLGWTVSDEDKKNTPEPYERMIHDTMNGDGSNFADWNGVSIAWKFVDAISAVYTADKAPLETYKSGSMGPEASDKLLAANGDAWVFKG

Key:
Test in all cases: retention with aggregates on a 0.1-μm filter, SDS-PAGE
[1] = biological target: B2
ClpB95(E279Q/E678Q) = ClpB95(E279Q/E678Q) (E. coli, UniProt P63284 1-857, E279Q | E678Q)
DnaK = DnaK (UniProt P0A6Y8 1-638)

Binder	binding result [1]	binding result (ClpB95(E279Q/E678Q))	binding result (DnaK)
B1	binds	–	–
B2	–	binds	binds
